Reference: patent publication US20080119412A1 (NONO, published 2008)

Columns and labels:
Assay in all cases: G assay
[1] = target: …
[2] = target: Peptide #1829, biotin-…
[3] = target: …; remark: listed apart in the source
[4] = target: …; remark: listed apart in the source
[5] = target: Peptide #1791, biotin-…
[6] = target: Peptide #1841, biotin-…
[7] = target: Peptide #1846, biotin-[…]
[8] = target: Peptide #1852, biotin-[…]
[9] = target: …; remark: listed apart in the source

Measured: binding result

B1: GST-INADL PDZ domain 3 fusion protein (other, not shown: a dimerising Fc or GST; small tags and cut ends)
chain: PGSDSSLFETYNVELVRKDGQSLGIRIVGYVGTSHTGEASGIYVKSIIPGSAAYHNGHIQVNDKIVAVDGVNIQGFANHDVVEVLRNAGQVVHLTLVRRKTSSSTSRIHRD
notes: also called INADL d3 (96.3); INADL D3
binds: [1] | [2]

B2: GST-RIM2 PDZ domain 1 fusion protein (other, not shown: a dimerising Fc or GST; small tags and cut ends)
chain: TLNEEHSHSDKHPVTWQPSKDGDRLIGRILLNKRLKDGSVPRDSGAMLGLKVVGGKMTESGRLCAFITKVKKGSLADTVGHLRPGDEVLEWNGRLLQGATFEEVYNIILESKPEPQVELVVSRPIG
notes: also called RIM2 (177.4); RIM-2 d1
not listed: [9]
binds: all other assays above

B3: GST-ZO-1 PDZ domain 2 fusion protein (other, not shown: a dimerising Fc or GST; small tags and cut ends)
chain: ISSQPAKPTKVTLVKSRKNEEYGLRLASHIFVKEISQDSLAARDGNIQEGDVVLKINGTVTENMSLTDAKTLIERSKGKLKMVVQRDRATLLNSS
notes: also called ZO-1 d2 (241.3); ZO-1 D2
not listed: [7]
binds: all other assays above

B4: GST-PAR3 PDZ domain 3 fusion protein (other, not shown: a dimerising Fc or GST; small tags and cut ends)
chain: PREFLTFEVPLNDSGSAGLGVSVKGNRSKENHADLGIFVKSIINGGAASKDGRLRVNDQLIAVNGESLLGKTNQDAMETLRRSMSTEGNKRGMIQLIVASRISKCNELKSNSS
notes: also called PAR3 d3 (278.1); PAR3 D3
binds: [1] | [3] | [9] | [5]

B5: GST-Syntrophin 1 alpha PDZ domain 1 fusion protein (other, not shown: a dimerising Fc or GST; small tags and cut ends)
chain: QRRRVTVRKADAGGLGISIKGGRENKMPILISKIFKGLAADQTEALFVGDAILSVNGEDLSSATHDEAVQVLKKTGKEVVLEVKYMKDVSPYFK
notes: also called Syntrophin 1 alpha d1 (52.5); Syntrophin 1 alpha D1
binds: [9]
